Test results from publication doi:10.1101/2020.07.27.223255, “Bro1 stimulates Vps4 activity to promote Intralumenal Vesicle Formation during Multivesicular Body biogenesis” (bioRxiv, 2020).

T1: His6-Vps4 (S. cerevisiae, UniProt P52917 1-437)
T1 sequence (looked up): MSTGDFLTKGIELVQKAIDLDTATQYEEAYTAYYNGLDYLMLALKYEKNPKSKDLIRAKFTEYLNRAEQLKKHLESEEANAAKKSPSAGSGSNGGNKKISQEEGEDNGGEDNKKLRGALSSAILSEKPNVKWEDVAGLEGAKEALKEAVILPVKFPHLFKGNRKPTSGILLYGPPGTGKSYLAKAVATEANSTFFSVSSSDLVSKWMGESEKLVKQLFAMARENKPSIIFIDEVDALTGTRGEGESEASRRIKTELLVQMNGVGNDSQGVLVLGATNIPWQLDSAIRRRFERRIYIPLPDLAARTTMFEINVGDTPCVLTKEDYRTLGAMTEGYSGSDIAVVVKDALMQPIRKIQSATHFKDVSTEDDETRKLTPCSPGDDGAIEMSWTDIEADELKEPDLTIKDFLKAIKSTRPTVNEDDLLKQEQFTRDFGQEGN


Assays:
His6-Vps4 [1] = molecular target: T1, His6-Vps4; assay: cell-based or functional assay
His6-Vps4 [2] = molecular target: T1, His6-Vps4; assay: pull-down; His6-Vps4 (10 μg) or His6-MIT on Ni-NTA agarose; 6 μg Bro1V or mutants in ATPase buffer + 0.02% Tween20, 1 hour at 30°C; four washes NiA buffer with 10 mM imidazole; eluted with 200 mM imidazole; protein stain and anti-Bro1 immunoblot; conditions: both partners purified

Vps4 (0.5μM) ATPase activity with titration of Bro1V (10nM-8μM): maximal stimulation over basal activity (Vps4 of the ATPase assay came from GST-Vps4) (His6-Vps4 [1]) [fold]	binding result (His6-Vps4 [2])	Binder
2.6		Bro1 V domain (Bro1V, aa 370-709), GST tag removed (domain or fragment, S. cerevisiae, UniProt P48582 370-709, looked up) DVYEKESIYSEEKATLLRKQVEETETANLEYSSFIEFTNLPRLLSDLEKQFSDGNIFSNTDTQGQLMRDQIQTWCKFIQTNEFRDIEEQMNKIVFKRKQILEILSALPNDQKENVTKLKSSLVAASNSDEKLFACVKPHIVEINLLNDNGKIWKKFDEFNRNTPPQPSLLDIDDTKNDKILELLKQVKGHAEDLRTLKEERSRNLSELRDEINNDDITKLLIINKGKSDVELKDLFEVELEKFEPLSTRIEATIYKQSSMIDDIKAKLDEIFHLSNFKDKSSGEEKFLEDRKNFFDKLQEAVKSFSIFASDLPKGIEFYDSLFNMSRDLAERVRVAKQTE
	binds	Bro1V^M9 (T587D), GST tag removed (domain or fragment, S. cerevisiae, UniProt P48582 370-709, looked up, Bro1 V domain, S. cerevisiae, aa 370-709, mutant M9; source: E. coli BL21-DE3, purified (Glutathione Sepharose 4B, AcTEV protease to remove GST, Superdex200 size exclusion)) DVYEKESIYSEEKATLLRKQVEETETANLEYSSFIEFTNLPRLLSDLEKQFSDGNIFSNTDTQGQLMRDQIQTWCKFIQTNEFRDIEEQMNKIVFKRKQILEILSALPNDQKENVTKLKSSLVAASNSDEKLFACVKPHIVEINLLNDNGKIWKKFDEFNRNTPPQPSLLDIDDTKNDKILELLKQVKGHAEDLRTLKEERSRNLSELRDEINNDDIDKLLIINKGKSDVELKDLFEVELEKFEPLSTRIEATIYKQSSMIDDIKAKLDEIFHLSNFKDKSSGEEKFLEDRKNFFDKLQEAVKSFSIFASDLPKGIEFYDSLFNMSRDLAERVRVAKQTE
	binds	Bro1V^M4 (V505A, H508A, I512A), GST tag removed (domain or fragment, S. cerevisiae, UniProt P48582 370-709, looked up, Bro1 V domain, S. cerevisiae, aa 370-709, mutant M4; source: E. coli BL21-DE3, purified (Glutathione Sepharose 4B, AcTEV protease to remove GST, Superdex200 size exclusion)) DVYEKESIYSEEKATLLRKQVEETETANLEYSSFIEFTNLPRLLSDLEKQFSDGNIFSNTDTQGQLMRDQIQTWCKFIQTNEFRDIEEQMNKIVFKRKQILEILSALPNDQKENVTKLKSSLVAASNSDEKLFACAKPAIVEANLLNDNGKIWKKFDEFNRNTPPQPSLLDIDDTKNDKILELLKQVKGHAEDLRTLKEERSRNLSELRDEINNDDITKLLIINKGKSDVELKDLFEVELEKFEPLSTRIEATIYKQSSMIDDIKAKLDEIFHLSNFKDKSSGEEKFLEDRKNFFDKLQEAVKSFSIFASDLPKGIEFYDSLFNMSRDLAERVRVAKQTE
	binds	Bro1V^M10 (K481D), GST tag removed (domain or fragment, S. cerevisiae, UniProt P48582 370-709, looked up, Bro1 V domain, S. cerevisiae, aa 370-709, mutant M10; source: E. coli BL21-DE3, purified (Glutathione Sepharose 4B, AcTEV protease to remove GST, Superdex200 size exclusion)) DVYEKESIYSEEKATLLRKQVEETETANLEYSSFIEFTNLPRLLSDLEKQFSDGNIFSNTDTQGQLMRDQIQTWCKFIQTNEFRDIEEQMNKIVFKRKQILEILSALPNDQDENVTKLKSSLVAASNSDEKLFACVKPHIVEINLLNDNGKIWKKFDEFNRNTPPQPSLLDIDDTKNDKILELLKQVKGHAEDLRTLKEERSRNLSELRDEINNDDITKLLIINKGKSDVELKDLFEVELEKFEPLSTRIEATIYKQSSMIDDIKAKLDEIFHLSNFKDKSSGEEKFLEDRKNFFDKLQEAVKSFSIFASDLPKGIEFYDSLFNMSRDLAERVRVAKQTE
	binds	Bro1V^M8 (E686A, L691D), GST tag removed (domain or fragment, S. cerevisiae, UniProt P48582 370-709, looked up, Bro1 V domain, S. cerevisiae, aa 370-709, mutant M8; source: E. coli BL21-DE3, purified (Glutathione Sepharose 4B, AcTEV protease to remove GST, Superdex200 size exclusion)) DVYEKESIYSEEKATLLRKQVEETETANLEYSSFIEFTNLPRLLSDLEKQFSDGNIFSNTDTQGQLMRDQIQTWCKFIQTNEFRDIEEQMNKIVFKRKQILEILSALPNDQKENVTKLKSSLVAASNSDEKLFACVKPHIVEINLLNDNGKIWKKFDEFNRNTPPQPSLLDIDDTKNDKILELLKQVKGHAEDLRTLKEERSRNLSELRDEINNDDITKLLIINKGKSDVELKDLFEVELEKFEPLSTRIEATIYKQSSMIDDIKAKLDEIFHLSNFKDKSSGEEKFLEDRKNFFDKLQEAVKSFSIFASDLPKGIAFYDSDFNMSRDLAERVRVAKQTE
